Assay: yeast display, Sf9 membrane polyspecificity reagent, FACS + sequencing; frameworks hold sequencing errors
In short: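 A nanobody's polyreactivity label depends on the gate it was sorted from. Yeast display cells were stained with 10% biotinylated, detergent-solubilized Sf9 membrane reagent for 1 hour at 4 °C, enriched on streptavidin microbeads and sorted by FACS. The low and high (top ~1%) gates were set on anti-HA fluorescence for expression and streptavidin fluorescence for reagent binding.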

Sequence | polyreactivity (PSR sort gate)
QVQLVESGGGLVQAGGSLRLSCAASGIISVRNTMGWYRQAPGKERELVAAISGSGGSTHYADSVKGRFTISRDNAKNTVYLQMNSLKTEDTEVYYCAVRSYGYWHFGYWGQGTQVTVSS | high polyreactivity
QVQLVESGGGLVQAGGSLRLSCAASGIIYWDYAMGWYRQAPGKEREYVAAINTSGGTTTYADSVKGRFTISRDNAKNTVYFQMNSLKREDTAVYYCAADPWVYYSYAYYSWGQGTQVTVSS | low polyreactivity
QVQLVESGGGLVQAGGSLRLSCAASGIIYYTYAMGWYRQAPGKERELVATISWDVDSTNYADSVKGRFTISRDNAKNTVYLQMNSLKPEDTALYYCAGDYTVDSYWYWVDYYEYGYWGQGTQVTVSS | high polyreactivity
QVQLVESGGGLVQAGGSLRLSCAASGIMFFLYAMGWYRQAPGKERELVAAISSGGSTYYAVSVKGRFTISRDNAKNTVYLQMNSLKPEDTAVYYCNARYWPFRYYYWGQGTQVTVSS | high polyreactivity
QVQLVESGGGLVQAGGSLRLSCAASGIMFTSNTMGSYRQAPGKEREFVASINWNGSSTYADSVKGRFTISRDNAKNTDYLQMNSLKPEDTAVYYCNADYNRNSVQFSLYDYWGQGTQVTVSS | low polyreactivity
QVQLVESGGGLVQAGGSLRLSCAASGINFYDYAMGWYRQAPGKEREFVAAISWDGVSTYYADSVKGRFTISRDNAKNTVYLQMNSLKPEDTAVYYCAARAVTDDYYEFDYWGQGTQVTVSS | low polyreactivity
QVQLVESGGGLVQAGGSLRLSCAASGINFYRYAMGWYRQAPGKERELVAAITGSGGNTYYADSVKGRFTISRDNAKNTVYLQMNSLKPEDTAVYYCAKRDYRHQYNYWGQGTQVTVSS | high polyreactivity
QVQLVESGGGLVQAGGSLRLSCAASGINLFYYAMGWYIQAPGKETDFVAAISWSGGSTYYADSVKGRFTISRDNAQNTVYLQMNSLKPEDTALYYCAAKWYSYRWTQFDYWGQGTQVTVSS | high polyreactivity
QVQLVESGGGLVQAGGSLRLSCAASGISFSYYAMGWSRQAPGKERELVAAISSSGSTNYADSVKGRFTISRDNAKNTVYLQMNSLKPEDTAVYYCNAGYGRRVYVYSFKLRYNYWGQGTQVTVSS | high polyreactivity
QVQLVESGGGLVQAGGSLRLSCAASGISFTYNTMGWSRQAPGKESELVAAITSGGGTNYADSVKGRFTISRDNAKNTVYLQMNSLKPEDTAVYYCAKDPGTVGPIWYDYWGQGTQVTVSS | low polyreactivity
QVQLVESGGGLVQAGGSLRLSCAASGISFWDYAMGWYRQAPGKERELVAAISSGGSTYYADSVKGRFTISRDNAKNTVYLQMNSLKPEDTAVFYCNAEQRYYRKVKGNYWGQGTQVSVSS | high polyreactivity
QVQLVESGGGLVQAGGSLRLSCAASGISFYLYAMGWYRQAPGKERELVAAISWRGDSTYYADSVKGRFTISRDNAKNTVYLQMNSLKPEDTAVYYCAADLLPLYDYWGQGTQVTGSS | high polyreactivity
QVQLVESGGGLVQAGGSLRLSCAASGISSWYYAMGWYRQAPGKERELVAAITSDGRTNYADSVKGRFTISRDNAKNTVYLQMKSLKPEDTAVYYCAAARRVGVSHYRYGYWGHGTQVTVSS | high polyreactivity
QVQLVESGGGLVQAGGSLRLSCAASGITFAGYARGWYRQAPGKERELVAAISGSGGSTYYADSVKGRFTISRDNAKNTVYLQMNSLKPEDTAVYYCNADVVPQYYSWGQGTQVTVSS | low polyreactivity
QVQLVESGGGLVQAGGSLRLSCAASGITFAQYAMGWYRQAPGKERELVAGITRSGGSTHYADSVKGRFTISRDNAKNSVYLQMNSLKPEDTAVYYCAKGLSTGRAYRGYDYWGQGTQVTVSS | high polyreactivity
QVQLVESGGGLVQAGGSLRLSCAASGITFASYAMGWYRQAPGKERELVAAISRTGGSTYYADSVKGRFTISRDNAKNTVYLQMNSLKPEDTAVYYCAARIPYTGYDYWGQGTQVTVSS | high polyreactivity

Sequence | polyreactivity (PSR sort gate)
QVQLVESGGGLVQAGGSLRLSCAASGITFATNAMGWYRQAPGKERELVAGITSGGSTYYADSVKGRFTISRDNAKNTVYLQMNSLKPEDTAVYYCNTAVKVERDYWGQGTQVTVSS | low polyreactivity
QVQLVESGGGLVQAGGSLRLSCAASGITFAWYAMGWYRQAPGKERELVAAIDDRGGSTYYADSVKGRFTISRDNAKNTVYFQMNSLKPEDTAVYYCNADTKSYEPYRLDYWGQGTQVTVSS | low polyreactivity
QVQLVESGGGLVQAGGSLRLSCAASGITFAYNAMGWYRQAPGKERELVAAITTGGDTYYADSVKGRFTISRDNAKNTVYLQMNSLKPEDTAVYYCAATPTYWYLWSPYDYWGQGTQVTVSS | low polyreactivity
QVQLVESGGGLVQAGGSLRLSCAASGITFAYNVMGWYRQAPGKERELVAAISWTGSSTYYADSVKGRFTISRDNAKNTVYLQMNSLKQEDTAVYYCAARQRYRYDYWGQGTQVTVSS | high polyreactivity
QVQLVESGGGLVQAGGSLRLSCAASGITFAYYAMGRSRQAPGKERELVAAIRWSGGDTYYADSVKGRFTISRDNAKNTVYLQMNSLKPEDTAVYYCAADTTWGYDYWGQGTQVTVSS | low polyreactivity
QVQLVESGGGLVQAGGSLRLSCAASGITFAYYVMGWYRQAPGKERELVAAITRSGDITSYADSVKGRFTISRDNAKNTVYLQMNSMKPEDTAVYYCNARRGYQSRRYNYWGQGTQVSVSS | high polyreactivity
QVQLVESGGGLVQAGGSLRLSCAASGITFDHYTMGWYRHAPGKEREFVADITGSGVRTYYADSVKGRFTISRDNAKNTVYLQMNCLKAEDNAVYYCAKRRTLYYSGKLGYWGQGTQVTVSS | high polyreactivity
QVQLVESGGGLVQAGGSLRLSCAASGITFDKNTMGWYRQEPGKVRELVAAISARGGSTYYADSVKGRFTISRDNSKNTVYLQMNSLKPEDTAVYYCAARSGYGPYRMDYWGQGTQVTVSS | high polyreactivity
QVQLVESGGGLVQAGGSLRLSCAASGITFDKYAMGWYRQAPGKERQLVAAISGSDGSTYYADSVKGRFTITRDNAKNTVYLQMNSLKPEDTAVYYCAAESEYAGTYEYDYWGQGSQVTVSS | low polyreactivity
QVQLVESGGGLVQAGGSLRLSCAASGITFDRYAMGWYRQAPGKERELVAAITSGGRTYYADSVKGRFTISRDNAKNTVYLQMNSLKPEDTAVYYCNATRGQYVGRYYYWGQGSQVTVSS | high polyreactivity
QVQLVESGGGLVQAGGSLRLSCAASGITFDSNAMGWYRQAPGKERELVAAISASGGRTYYADSVKGRFTISRDNAKNTVYLQMNSLKPEDTAVYYCNARYYVKHPLPYDYWGQGTQVTVSS | low polyreactivity
QVQLVESGGGLVQAGGSLRLSCAASGITFDSYAMGWYRQAPGKERELVAAISYSGGSTYYADSVKGRFTISRDNAKNTVYLQMNSLKPDDTAVYYCAAASDDDYDYWGQGTKVTVSS | low polyreactivity
QVQLVESGGGLVQAGGSLRLSCAASGITFDTYDMGWYRQAPGKERELVAAISSSGGSTYYADSVKGRFTISRDNAKNTVYLQMNSLKPEDTAVYYCAAVLLDDDYSYYYWGQGTQVTVSS | low polyreactivity
QVQLVESGGGLVQAGGSLRLSCAASGITFDVNAMGWYRQAPGKERELVAAITAGGNTYYADSVKGRFTISRDNAKNTVYLQLNSLKPEVTAVYYCATQSYYGFYDYDYWGQGTQVTVSS | low polyreactivity
QVQLVESGGGLVQAGGSLRLSCAASGITFDVYAMGWYRQAPGKERELVAAISGSGGSTYYADSVKGRFTISRDNAKNTVYLQMNSLKPEDTAVYYCAASGPDGQYLWYDYWGQGTQVTVSS | high polyreactivity
QVQLVESGGGLVQAGGSLRLSCAASGITFDYYAMGWYRQAPGKERELVAAISWGGGSTYYADSVKGRFTISRDNAKNTVYLQMNSLKPEDTAVYYCAADIVSSPSSYVPPGDYWGQGSQVTVSS | low polyreactivity

From the nanobody polyreactivity screen of Harvey et al. (2022)
